We go through 23 sequences from the DeepSol protein solubility set.

The nature of the data set: soluble on expression in E. coli; label from the status in PepcDB or PDB records.
For “MKTKTARLFALTALTAATTMPLAAQVSAQEASPREATISVSGEGQAAIAPDMAILSFSVVKQAETAAAALTENSKALAEVLKALKEAAIEDRDLQTSNFSVQPLYKHYEPKDGVYVAPEITGYQVSNGLTVRVRDLKMLGTILDTSVKLGINQGGDITFTNDKPEATVTEARKQAVADAIAKAKTLTEAAGVKLGRVIQISENSQRPMPVPAGMMRASMMKEADSVPIASGENNYSVVVNVTFALDQ”, the “soluble on expression in E. coli” value is recorded as “not soluble”. On to “MGSDKIHHHHHHMKRNTAQLKEKLIQTGVEEIKKNGLDQLSLRTIAKNCGVTHGTPYRHFKSKEDYLRVVLTRLSTFLNQEIAQGIDQKVSARDQLAQMGFNLITFTKRYPYFFEALFIKFPFKYMKITQETIVLDSDLPGFDKFKRIVFDLRKEESFTNSEAETLFHFWSFISGLAVLANSPIGRDLDNQAIHTTINHMLDIYIKGEQT”, for which the “soluble on expression in E. coli” value is “not soluble”. The value for “MSDRHMSSIFPECDHLKQIYDKCFTEFFQKFITPNYRHQYAVNPCERLHDVYKRCVEERLATQRPFEIDLDEIRKEYLNTDDDKLKDRQNNQKTNSENKCSSS” was “not soluble”; that for “MKKLAVLFMCAAMLASCDFKGGSKDLKAENDSLLMELTQRNAELDDMMGTFNEVQEGFRKINAAESRVDLQRGTITENSASAKQQIASDIEFISKQMEENKAQIAKLEAQLKNSKYNSTQMKKAVEALTAELKAKQQRIEELQTELASKNIRIQELDAAVSDLSAAKESLAAENEAKAKTVAEQDKSLNAAWFVFGTKSELKAQKILQSGDVLKSADFNKDYFTQIDIRTTKEIKLYSKRAELLTTHPTGSYELVKDDKGQLTLKITNPAEFWSVSRYLVIQVK” was “not soluble”.

In the case of “MKSIPGDIPQYLLIKAQLQARIQSGALKSGDKLPSERELCAIFNTTRITIRESLAQLESSGLIWRADRRGWFVTPERLWLDPTQNTNFHKLCREQGREPKTALLSGVLTTVPVEVMEPLQLQPFDQIYLLTRLRYADGRAVCYCENHCLPARVPELLQYDLNGSLTEVYESHYNLVYTSMHLSFYPTAMPAQAAQALGVMEGRPALLLRRLNYDQHGRVLDLDIEYWRHDSLRIEVDTH”, the “soluble on expression in E. coli” value was “not soluble”. Take “MRLFKRYTPSMIAKHISRLFKGRIYIYGVGRFEFDNGKLILPEKAEQRHFRAVKEINQEIMKLRCAYALEHHHHHH”: the “soluble on expression in E. coli” value is reported as “not soluble”. In the case of “MYPYIKLIATLFRAKNSPQMNLDEKSVLNCRAGLTDIDVFVELNNARHLTYMEFGRWDFAQRTGLLSLMRKNKWAFAVGGASVRYRRRIAFWKKFTVTTQVICHDGRWFYFLQETHIKDKVCSSALIKAAFTSKQGLVPATEVLAAYGKTTPNFDVPDWVNAWIDAESQRPWPLEHHHHHH” it was “soluble”; in that of “MLPVQILKDNAQEERGESARLSSFVGAIAIGDLVKSTLGPKGMDKILISGNPESAGGIKVTNDGATILKSIGVDNPAAKVLVDMSMTQDHEVGDGTTSVTVLAAELLKEAEKLVNQRIHPQTIISGYRRALGIAQESLKKSSIESGDNIRDDLLKIARTTLGSKILSQHKEHFAQLAVDAVLRLKGSGNLDAIQIIKKLGGSMNESYLDEGFLLEKLPGMFQPRRVEKAKILIANTPMDTDKVKVFGSRVRVDGVAKVAELEAAEKLKMKEKVDKILAHNCNVFINRQLIYNYPEQLFADAKVMAIEHADFEGIERLALVLGGEIVSTFDSPQTAQFGSCDLIEEIMIGEDRLLRFSGVKLGEACSVVLRGATQQILDESERSLHDALCVLVTHVKESKTVAGAGASEILMSSAIAVEAQKVAGKEALAVEAFGRALAQLPTIICDNAGLDSAELVTRLRAEHANGRHNMGIDIEKGEVADVTKLGVIESYNVKLCMVSSAAEATEQILRVDDIIKAAPRARAQDNRPC”, “not soluble”.

For “GPGSMSVEASRPTRSQDPLPAAVIREFLEMHQQCNDQSLGQGESPTGTEKDGTRAAEARVVSAPLRVEVETTHGYVYEGRLVAMDEFYNVTLTEATKRRERLCDVERSLLTMHGFPAPAASPSTRREYVGSVLVRSGNLLMIRFPQGEGNATRVLHGAFKSMVMKVRRQINLERQKNRMERRRRKQLPVKPQSLVGKAGDPPKRTKAKKE”, the “soluble on expression in E. coli” value is on record as “soluble”. In the case of “MGSDKIHHHHHHMNNINDSSAIHITPETFVKQIRSLGRYNFPEPALVDPDGIGIVGIGGNLAPETLISAYAQGLFPWFNDDEPIAWWCPEPRCVMQPTDYQPSKSLRKQANNARWQLTLNQAFNEVIHACSLPRSNGLPEGEHTWIHDDMIEAYNELHAQGFAHSVEVWDDQGQLVGGLYGLKIGSIYFGESMFHIASNASKLAFWGLMRLCTQSNVTLVDCQLPNEHLMSLGAITLSRTEFLTQLDTLISNGSDAWHKNSHRPLAVSLLGNLQPWQLNP” it was “not soluble”; in that of “SNANVGVFVLMHGDSTASSMLKTAQELLGTSIGTAMNMPLTMEVQTMYEQLRNQVITQKESLNNGILLLTDMGSLNSFGNMLFEETGIRTKAITMTSTMIVLEAIRMASVGRSLEDIYQNIQLSFESVVREQFRSSLQK”, “soluble”. The value for “MGSDKIHHHHHHMLSGENKMLDIDKSTVDFLVTENMVQEVEKVLSHDVPLVHAIVEEMVKRDIDRIYFVACGSPLNAAQTAKHLADRFSDLQVYAISGWEFCDNTPYRLDDRCAVIGVSDYGKTEEVIKALELGRACGALTAAFTKRADSPITSAAEFSIDYQADCIWEIHLLLCYSVVLEMITRLAPNAEIGKIKNDLKQLPNALGHLVRTWEEKGRQLGELASQWPMIYTVAAGPLRPLGYKEGIVTLMEFTWTHGCVIESGEFRHGPLEIVEPGVPFLFLLGNDESRHTTERAINFVKQRTDNVIVIDYAEISQGLHPWLAPFLMFVPMEWLCYYLSIYKDHNPDERRYYGGLVEY” was “not soluble”; that for “MLSEVLLVSAPGKVILHGEHAVVHGKVALAVSLNLRTFLRLQPHSNGKVDLSLPNIGIKRAWDVARLQSLDTSFLEQGDVTTPTSEQVEKLKEVAGLPDDCAVTERLAVLAFLYLYLSICRKQRALPSLDIVVWSELPPGAGLGSSAAYSVCLAAALLTVCEEIPNPLKDGDCVNRWTKEDLELINKWAFQGERMIHGNPSGVDNAVSTWGGALRYHQGKISSLKRSPALQILLTNTKVPRNTRALVAGVRNRLLKFPEIVAPLLTSIDAISLECERVLGEMGEAPAPEQYLVLEELIDMNQHHLNALGVGHASLDQLCQVTRARGLHSKLTGAGGGGCGITLLKPGLEQPEVEATKQALTSCGFDCLETSIGAPGVSIHSATSLDSRVQQALDGL” was “soluble”. In the case of “VYGDIWGFETDRYFTKDDFNADGSYKEGIASQKKLEQDGFVYGPGDIKFKDLNNDKEINGGEGTVKDHGDLKVIGNTTPRYQYGFRLGGEWKGIDIDMFFQGVGKCDAWTQSAFVMPMMRGADAIYANQANYWTDENPDPNADFPRMWPGNAGKGTVSVLDLGNHNFYPQSKYLVNMAYLRFKNLTIGYTLPKDWTRKVYMDKVRVYFSANNICELINKSNAPVDPEVNTSEAIANGGSSDYGNGTWGRVDPMYRTVSFGLQVTF” it was “not soluble”; in that of “MQPTRRSYSNPFKAQVIQECSQPGASIASVALSHNLNANLVHKWIRLHAQKSPTLPPAFIPLAMPPAGANPHPASPNICVEIQHTRGTVKVSWPTENAAACATFLRDLLRLEHHHHHH”, “not soluble”. On to “MSLKYLGLCTDLYELTMAQSYLYEGKTGTAVFSLFVRKLPEKRNFLISAGLETLVERIKNFKFGDEEIKYLKSLGIFKDDFLDYLKDFEFSGNVYAIPEGRIVFQNEPLVQVEAPIPEAQLLETLVINTIQFETMIASKAVRSYLVAKGKKLVDFGFRRAHGLEAGILAARASYIAGFDGTSNVEAGREFGIPVVGTMAHSYVMIFDKEEDAFRAFAKLYPKNAIFLIDTYDTIEAAKKVVDLAKEGVPVVGVRIDSGDIVKLSKEVRKILDENGLKNVRIIVSGGVDEYKIKEWFDRGAPIDAFGVGTKFITSADAPYFDIAYKLVEYEGKPKYKLSPGKKTFPYKRQVYRYYENGKMKYDETAKWESKREGEPLVELVMKNGKLIKELPSLKEIREVVMSELEKLPENYKDITKHYEYEVKILDWEEGHHHHHH”, for which the “soluble on expression in E. coli” value is reported as “not soluble”.

On to “MKDVIEKRHIRAEVPIELTWDLSDLYESDKKWETALRVLTDDIKKLDAFKGQLHTSPTTLLHCLLLEEELLMKLTKLYSYANLKESTDRTNPVIQANSSKIAALWTKVHTALSFIHNEILSLEEGTIEKYLTKETKLEPFRKSLLDILQKRQYTLSPETEEALAALGEVHSSPYKIYGMTKLADMDFNSIQDEQGNELPVSFSLFESKYEFSPSVDIRRKAYSSFVSTLKRYKNTVATTYATEVKKQVTLSRLRKFESVTHMLLEPQNVPLEMYNNQLDIIYKELAPHMRRFADLKKKVLGLDQMLFCDLHAPLDPEFNPAITYEEAGKLIQDSLQVLGDEYSAIIKKGFKERWVDLADNVGKSTGAFCSSPYGSHPYILITWQNTMRGCFTLAHEFGHAGHFYLANKNQRIMNVRPSMYFVEAPSTMNELLLAQHLLATTDDKRMRRWVILQLLGTYYHNFVTHLLEGEYQRRVYSLAEEGEALTATTLTEIKTNVLSTFWGNSVEIDEGAGLTWMRQPHYYMGLYSYTYSAGLTASTAVAQMIKEEGQPAVDRWLDVLRAGGTMKPLELMKHAGVDMSKPDAIRKAVSYVGSLIDELERSYEE”, for which the “soluble on expression in E. coli” value is on record as “not soluble”. Consider “MKLVCISDTHSLHRRIPEIPDGDVLIHAGDSLGQGSLENIEDLNDWLGTLPHRHKIVIAGNHDWAFQEMPGEARTALSNAVYLEDSGVEIEGNRFWGSPWTPTFMDWAFMLERGEPLYQKWQLVPDNTDVLITHGPPKGIGDEANLGFKCQNVGCVDLLARIHQLSLKAHIFGHIHEGYGEYLRGKTRLINASTCTARYEPRNAPIVVDVLEHHHHHH”, for which the “soluble on expression in E. coli” value is recorded as “not soluble”.

For “MAHHHHHHMGGCLISPSAEMQLEENTTSPFGHRRPIFGLFGAGEVTGGVHGGNRLGGNSLLECVVFGRIAGDRAATILQNNDTYLWGEKWSQLKLRNVMEDENGFMWLHFTFPSSFQVSGLEALQGVVLRSVSGDKSVEVYTPYTLPDDEGVVGIALSPWLTGNGVHWLRTLQPGDTVEMKAAERVERNYMNMLKAPHKVVIATSRGIAPMMQILRATMERPEKDATIHLIYIADRASSIPYREKLKALAEASPERFRCTFVLQHPQPGWSGAVNYLDEIAASVFPDPAVVIFLCGASEETRSIKSSLLDMGHDVATIATVE”, the “soluble on expression in E. coli” value is given as “not soluble”. The value for “GMDMKTKLQTIIGMFQITAWDETSYFESDNGAKLTQAVITQSYQGVLQGHSEIRYLMSYQDNANATFVGFEHFTGSLGDKKGSFILQHKGLFAAGVASSEFELVERSATGDFVHLVGKGHFVSTENGQANYQITLQDS” was “soluble”. In the case of “SMAENGDNEKMAALEAKICHQIEYYFGDFNLPRDKFLKEQIKLDEGWVPLEIMIKFNRLNRLTTDFNVIVEALSKSKAELMEISEDKTKIRRSPSKPLPEVTDEYKNDVKNRSVYIKGFPTDATLDDIKEWLEDKGQVLNIQMRRTLHKAFKGSIFVVFDSIESAKKFVETPGQKYKETDLLILFKDDYFAKKNE” it was “soluble”; in that of “MTTYDRNRNAITTGSRVMVSGTGHTGKILSIDTEGLTAEQIRRGKTVVVEGCEEKLAPLDLIRLGMN”, “soluble”. For the sequence “MSNRKFNLDNEVQPEIHFRLLSISASKFENDWTSFPHSHHFTEIFFIKDGTGRMLIENESLPVSSNSLVVIGAQVTHTEFSDPENPLDYYVLGVEGLKLNTDKEPEYIHVPASANSPFIRQCFENILREMHNKQDRYAEICQHYLDILILYFCRKDHVSYEVVDAQNSSRECHKVKRFIEHNYQSMISLDSLAENCSLSKYYLSHRFAELYGKSPIAYLNEVRLASARDLLLTTNHSIEEIAGCIGFSSTSYFSQSFQKNFHESPQQFRKSHRVRT”, the “soluble on expression in E. coli” value is on record as “not soluble”.
